Patent US20240270846A1 (published 2024)

Molecular target: T1, CD3 epsilon homodimer protein (UniProt P07766 23-126)
T1 construct: construct not described; homodimer as printed; also called CD3 (CD3 epsilon)
Experiment: SPR Biacore T200, CD3 epsilon homodimer immobilized; vs unaltered GLS3000;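 further: antibody variants flowed as analyte over CD3 epsilon homodimer amine-coupled to a CM4 chip, at 25 °C in HBS-EP+ running buffer, fitted with Biacore T200 Evaluation Software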

T1 sequence (P07766 23-126): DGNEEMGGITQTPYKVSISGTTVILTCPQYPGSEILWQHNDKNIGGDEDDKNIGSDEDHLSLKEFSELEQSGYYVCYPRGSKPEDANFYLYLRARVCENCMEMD

KD ratio to GLS3000 (Affinity up)	Binder
2.67	GLS3000 N28T (Kabat) L chain altered form, one-arm antibody with CE115HA000 (antibody, human IgG1, kappa, L234A L235A, N297A, name in Kabat numbering, one-arm antibody) heavy: QVQLVESGGGVVQPGRSLRLSCAASGFTFSNAWMHWVRQAPGKGLEWVAQIKAKSNNYATYYAESVKGRFTISRDDSKNSLYLQMNSLKTEDTAVYYCRYVHYGAYYGVDAWGQGTTVTVSSASTKGPSVFPLAPSSKSTSGGTAALGCLVKDYFPEPVTVSWNSGALTSGVHTFPAVLQSSGLYSLSSVVTVPSSSLGTQTYICNVNHKPSNTKVDKKVEPKSCDKTHTCPPCPAPEAAGGPSVFLFPPKPKDTLMISRTPEVTCVVVDVSHEDPEVKFNWYVDGVEVHNAKTKPREEQYASTYRVVSVLTVLHQDWLNGKEYKCKVSNKALPAPIEKTISKAKGQPREPQVYTLPPSRCELTKNQVSLSCAVKGFYPSDIAVEWESNGQPENNYKTTPPVLDSDGSFFLVSKLTVDKSRWQQGNVFSCSVMHEALHNHYTQKSLSLSPDYKDDDDK EPKSSDKTHTCPPCPAPELLGGPSVFLFPPKPKDTLMISRTPEVTCVVVDVSHEDPEVKFNWYVDGVEVHNAKTKPREEQYNSTYRVVSVLTVLHQDWLNGKEYKCKVSNKALPAPIEKTISKAKGQPREPQVCTLPPSRDELTKNQVSLWCLVKGFYPSDIAVEWESNGQPENNYKTTPPVLDSDGSFFLYSKLTVDKSRWQQGNVFSCSVMHEALHNRYTQKSLSLSP light: DIVMTQSPLSLPVTPGEPASISCRSSQSLVHSTRNTYLHWYQQKPGQAPRLLIYKVSNRFSGVPDRFSGSGSGTDFTLKISRVEAEDVGVYYCGQGTQVPYTFGQGTKLEIKRTVAAPSVFIFPPSDEQLKSGTASVVCLLNNFYPREAKVQWKVDNALQSGNSQESVTEQDSKDSTYSLSSTLTLSKADYEKHKVYACEVTHQGLSSPVTKSFNRGEC
3.17	GLS3000 N28W (Kabat) L chain altered form, one-arm antibody with CE115HA000 (antibody, human IgG1, kappa, L234A L235A, N297A, name in Kabat numbering, one-arm antibody) heavy: QVQLVESGGGVVQPGRSLRLSCAASGFTFSNAWMHWVRQAPGKGLEWVAQIKAKSNNYATYYAESVKGRFTISRDDSKNSLYLQMNSLKTEDTAVYYCRYVHYGAYYGVDAWGQGTTVTVSSASTKGPSVFPLAPSSKSTSGGTAALGCLVKDYFPEPVTVSWNSGALTSGVHTFPAVLQSSGLYSLSSVVTVPSSSLGTQTYICNVNHKPSNTKVDKKVEPKSCDKTHTCPPCPAPEAAGGPSVFLFPPKPKDTLMISRTPEVTCVVVDVSHEDPEVKFNWYVDGVEVHNAKTKPREEQYASTYRVVSVLTVLHQDWLNGKEYKCKVSNKALPAPIEKTISKAKGQPREPQVYTLPPSRCELTKNQVSLSCAVKGFYPSDIAVEWESNGQPENNYKTTPPVLDSDGSFFLVSKLTVDKSRWQQGNVFSCSVMHEALHNHYTQKSLSLSPDYKDDDDK EPKSSDKTHTCPPCPAPELLGGPSVFLFPPKPKDTLMISRTPEVTCVVVDVSHEDPEVKFNWYVDGVEVHNAKTKPREEQYNSTYRVVSVLTVLHQDWLNGKEYKCKVSNKALPAPIEKTISKAKGQPREPQVCTLPPSRDELTKNQVSLWCLVKGFYPSDIAVEWESNGQPENNYKTTPPVLDSDGSFFLYSKLTVDKSRWQQGNVFSCSVMHEALHNRYTQKSLSLSP light: DIVMTQSPLSLPVTPGEPASISCRSSQSLVHSWRNTYLHWYQQKPGQAPRLLIYKVSNRFSGVPDRFSGSGSGTDFTLKISRVEAEDVGVYYCGQGTQVPYTFGQGTKLEIKRTVAAPSVFIFPPSDEQLKSGTASVVCLLNNFYPREAKVQWKVDNALQSGNSQESVTEQDSKDSTYSLSSTLTLSKADYEKHKVYACEVTHQGLSSPVTKSFNRGEC
1.16	GLS3000 N30A (Kabat) L chain altered form, one-arm antibody with CE115HA000 (antibody, human IgG1, kappa, L234A L235A, N297A, name in Kabat numbering, one-arm antibody) heavy: QVQLVESGGGVVQPGRSLRLSCAASGFTFSNAWMHWVRQAPGKGLEWVAQIKAKSNNYATYYAESVKGRFTISRDDSKNSLYLQMNSLKTEDTAVYYCRYVHYGAYYGVDAWGQGTTVTVSSASTKGPSVFPLAPSSKSTSGGTAALGCLVKDYFPEPVTVSWNSGALTSGVHTFPAVLQSSGLYSLSSVVTVPSSSLGTQTYICNVNHKPSNTKVDKKVEPKSCDKTHTCPPCPAPEAAGGPSVFLFPPKPKDTLMISRTPEVTCVVVDVSHEDPEVKFNWYVDGVEVHNAKTKPREEQYASTYRVVSVLTVLHQDWLNGKEYKCKVSNKALPAPIEKTISKAKGQPREPQVYTLPPSRCELTKNQVSLSCAVKGFYPSDIAVEWESNGQPENNYKTTPPVLDSDGSFFLVSKLTVDKSRWQQGNVFSCSVMHEALHNHYTQKSLSLSPDYKDDDDK EPKSSDKTHTCPPCPAPELLGGPSVFLFPPKPKDTLMISRTPEVTCVVVDVSHEDPEVKFNWYVDGVEVHNAKTKPREEQYNSTYRVVSVLTVLHQDWLNGKEYKCKVSNKALPAPIEKTISKAKGQPREPQVCTLPPSRDELTKNQVSLWCLVKGFYPSDIAVEWESNGQPENNYKTTPPVLDSDGSFFLYSKLTVDKSRWQQGNVFSCSVMHEALHNRYTQKSLSLSP light: DIVMTQSPLSLPVTPGEPASISCRSSQSLVHSNRATYLHWYQQKPGQAPRLLIYKVSNRFSGVPDRFSGSGSGTDFTLKISRVEAEDVGVYYCGQGTQVPYTFGQGTKLEIKRTVAAPSVFIFPPSDEQLKSGTASVVCLLNNFYPREAKVQWKVDNALQSGNSQESVTEQDSKDSTYSLSSTLTLSKADYEKHKVYACEVTHQGLSSPVTKSFNRGEC
3.89	GLS3000 N28Y (Kabat) L chain altered form, one-arm antibody with CE115HA000 (antibody, human IgG1, kappa, L234A L235A, N297A, name in Kabat numbering, one-arm antibody) heavy: QVQLVESGGGVVQPGRSLRLSCAASGFTFSNAWMHWVRQAPGKGLEWVAQIKAKSNNYATYYAESVKGRFTISRDDSKNSLYLQMNSLKTEDTAVYYCRYVHYGAYYGVDAWGQGTTVTVSSASTKGPSVFPLAPSSKSTSGGTAALGCLVKDYFPEPVTVSWNSGALTSGVHTFPAVLQSSGLYSLSSVVTVPSSSLGTQTYICNVNHKPSNTKVDKKVEPKSCDKTHTCPPCPAPEAAGGPSVFLFPPKPKDTLMISRTPEVTCVVVDVSHEDPEVKFNWYVDGVEVHNAKTKPREEQYASTYRVVSVLTVLHQDWLNGKEYKCKVSNKALPAPIEKTISKAKGQPREPQVYTLPPSRCELTKNQVSLSCAVKGFYPSDIAVEWESNGQPENNYKTTPPVLDSDGSFFLVSKLTVDKSRWQQGNVFSCSVMHEALHNHYTQKSLSLSPDYKDDDDK EPKSSDKTHTCPPCPAPELLGGPSVFLFPPKPKDTLMISRTPEVTCVVVDVSHEDPEVKFNWYVDGVEVHNAKTKPREEQYNSTYRVVSVLTVLHQDWLNGKEYKCKVSNKALPAPIEKTISKAKGQPREPQVCTLPPSRDELTKNQVSLWCLVKGFYPSDIAVEWESNGQPENNYKTTPPVLDSDGSFFLYSKLTVDKSRWQQGNVFSCSVMHEALHNRYTQKSLSLSP light: DIVMTQSPLSLPVTPGEPASISCRSSQSLVHSYRNTYLHWYQQKPGQAPRLLIYKVSNRFSGVPDRFSGSGSGTDFTLKISRVEAEDVGVYYCGQGTQVPYTFGQGTKLEIKRTVAAPSVFIFPPSDEQLKSGTASVVCLLNNFYPREAKVQWKVDNALQSGNSQESVTEQDSKDSTYSLSSTLTLSKADYEKHKVYACEVTHQGLSSPVTKSFNRGEC
3.82	GLS3000 N30D (Kabat) L chain altered form, one-arm antibody with CE115HA000 (antibody, human IgG1, kappa, L234A L235A, N297A, name in Kabat numbering, one-arm antibody) heavy: QVQLVESGGGVVQPGRSLRLSCAASGFTFSNAWMHWVRQAPGKGLEWVAQIKAKSNNYATYYAESVKGRFTISRDDSKNSLYLQMNSLKTEDTAVYYCRYVHYGAYYGVDAWGQGTTVTVSSASTKGPSVFPLAPSSKSTSGGTAALGCLVKDYFPEPVTVSWNSGALTSGVHTFPAVLQSSGLYSLSSVVTVPSSSLGTQTYICNVNHKPSNTKVDKKVEPKSCDKTHTCPPCPAPEAAGGPSVFLFPPKPKDTLMISRTPEVTCVVVDVSHEDPEVKFNWYVDGVEVHNAKTKPREEQYASTYRVVSVLTVLHQDWLNGKEYKCKVSNKALPAPIEKTISKAKGQPREPQVYTLPPSRCELTKNQVSLSCAVKGFYPSDIAVEWESNGQPENNYKTTPPVLDSDGSFFLVSKLTVDKSRWQQGNVFSCSVMHEALHNHYTQKSLSLSPDYKDDDDK EPKSSDKTHTCPPCPAPELLGGPSVFLFPPKPKDTLMISRTPEVTCVVVDVSHEDPEVKFNWYVDGVEVHNAKTKPREEQYNSTYRVVSVLTVLHQDWLNGKEYKCKVSNKALPAPIEKTISKAKGQPREPQVCTLPPSRDELTKNQVSLWCLVKGFYPSDIAVEWESNGQPENNYKTTPPVLDSDGSFFLYSKLTVDKSRWQQGNVFSCSVMHEALHNRYTQKSLSLSP light: DIVMTQSPLSLPVTPGEPASISCRSSQSLVHSNRDTYLHWYQQKPGQAPRLLIYKVSNRFSGVPDRFSGSGSGTDFTLKISRVEAEDVGVYYCGQGTQVPYTFGQGTKLEIKRTVAAPSVFIFPPSDEQLKSGTASVVCLLNNFYPREAKVQWKVDNALQSGNSQESVTEQDSKDSTYSLSSTLTLSKADYEKHKVYACEVTHQGLSSPVTKSFNRGEC
3.73	GLS3000 N28V (Kabat) L chain altered form, one-arm antibody with CE115HA000 (antibody, human IgG1, kappa, L234A L235A, N297A, name in Kabat numbering, one-arm antibody) heavy: QVQLVESGGGVVQPGRSLRLSCAASGFTFSNAWMHWVRQAPGKGLEWVAQIKAKSNNYATYYAESVKGRFTISRDDSKNSLYLQMNSLKTEDTAVYYCRYVHYGAYYGVDAWGQGTTVTVSSASTKGPSVFPLAPSSKSTSGGTAALGCLVKDYFPEPVTVSWNSGALTSGVHTFPAVLQSSGLYSLSSVVTVPSSSLGTQTYICNVNHKPSNTKVDKKVEPKSCDKTHTCPPCPAPEAAGGPSVFLFPPKPKDTLMISRTPEVTCVVVDVSHEDPEVKFNWYVDGVEVHNAKTKPREEQYASTYRVVSVLTVLHQDWLNGKEYKCKVSNKALPAPIEKTISKAKGQPREPQVYTLPPSRCELTKNQVSLSCAVKGFYPSDIAVEWESNGQPENNYKTTPPVLDSDGSFFLVSKLTVDKSRWQQGNVFSCSVMHEALHNHYTQKSLSLSPDYKDDDDK EPKSSDKTHTCPPCPAPELLGGPSVFLFPPKPKDTLMISRTPEVTCVVVDVSHEDPEVKFNWYVDGVEVHNAKTKPREEQYNSTYRVVSVLTVLHQDWLNGKEYKCKVSNKALPAPIEKTISKAKGQPREPQVCTLPPSRDELTKNQVSLWCLVKGFYPSDIAVEWESNGQPENNYKTTPPVLDSDGSFFLYSKLTVDKSRWQQGNVFSCSVMHEALHNRYTQKSLSLSP light: DIVMTQSPLSLPVTPGEPASISCRSSQSLVHSVRNTYLHWYQQKPGQAPRLLIYKVSNRFSGVPDRFSGSGSGTDFTLKISRVEAEDVGVYYCGQGTQVPYTFGQGTKLEIKRTVAAPSVFIFPPSDEQLKSGTASVVCLLNNFYPREAKVQWKVDNALQSGNSQESVTEQDSKDSTYSLSSTLTLSKADYEKHKVYACEVTHQGLSSPVTKSFNRGEC
